The labels stand for the following.
T1: Nqo12 (Thermus thermophilus, UniProt Q56227 1-606)
T1 sequence (looked up): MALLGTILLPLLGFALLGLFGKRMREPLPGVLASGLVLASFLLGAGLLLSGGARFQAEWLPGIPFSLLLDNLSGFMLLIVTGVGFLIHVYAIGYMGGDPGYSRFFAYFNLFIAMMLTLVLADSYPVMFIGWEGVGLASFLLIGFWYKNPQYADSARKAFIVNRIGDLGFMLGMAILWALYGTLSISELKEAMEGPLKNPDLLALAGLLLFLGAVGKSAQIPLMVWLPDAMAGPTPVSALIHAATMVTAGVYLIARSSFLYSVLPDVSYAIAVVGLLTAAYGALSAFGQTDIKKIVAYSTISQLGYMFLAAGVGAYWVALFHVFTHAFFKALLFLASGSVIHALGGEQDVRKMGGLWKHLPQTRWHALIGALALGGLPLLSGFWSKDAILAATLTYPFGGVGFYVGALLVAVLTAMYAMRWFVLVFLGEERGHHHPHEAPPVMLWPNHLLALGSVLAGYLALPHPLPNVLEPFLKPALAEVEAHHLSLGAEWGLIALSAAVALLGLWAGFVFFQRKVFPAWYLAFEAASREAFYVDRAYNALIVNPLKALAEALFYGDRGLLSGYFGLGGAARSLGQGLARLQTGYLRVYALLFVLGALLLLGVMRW

T2: Nqo8 (Thermus thermophilus, UniProt Q60019 1-365)
T2 sequence (looked up): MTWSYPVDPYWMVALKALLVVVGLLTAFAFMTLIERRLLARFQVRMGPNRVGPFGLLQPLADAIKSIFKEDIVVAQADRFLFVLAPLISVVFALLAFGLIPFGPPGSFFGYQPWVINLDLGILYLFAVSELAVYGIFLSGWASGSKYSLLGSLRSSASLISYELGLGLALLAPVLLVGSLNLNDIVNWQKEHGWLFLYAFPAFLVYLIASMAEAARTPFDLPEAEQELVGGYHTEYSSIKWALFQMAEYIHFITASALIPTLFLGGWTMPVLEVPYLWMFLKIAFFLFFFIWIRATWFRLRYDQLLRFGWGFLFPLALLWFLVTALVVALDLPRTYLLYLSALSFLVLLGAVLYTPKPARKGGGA

T3: Nqo10 (Thermus thermophilus, UniProt Q56225 1-176)
T3 sequence (looked up): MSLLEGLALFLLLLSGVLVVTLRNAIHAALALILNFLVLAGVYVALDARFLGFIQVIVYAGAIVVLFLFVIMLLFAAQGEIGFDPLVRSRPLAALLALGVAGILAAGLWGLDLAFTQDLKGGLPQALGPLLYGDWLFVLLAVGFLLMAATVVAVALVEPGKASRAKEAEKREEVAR

B1: Nqo14 (natural protein, Thermus thermophilus, UniProt Q56229 1-427, looked up)
chain: MTLAILAVFSVALTLLGFVLPPQGVKRATLLGLALALASLLLTWGKPFAFGPYAVDGVSQVFTLLALLGALWTVGLVRSGRFEFYLLVLYAALGMHLLASTRHLLLMLVALEALSLPLYALATWRRGQGLEAALKYFLLGALAAAFFLYGAALFYGATGSLVLGAPGEGPLYALALGLLLVGLGFKAALAPFHFWTPDVYQGSPTPVVLFMATSVKAAAFAALLRVAAPPEALALLVALSVVVGNLAALAQKEAKRLLAYSSIAHAGYMALALYTGNAQALGFYLLTYVLATGLAFAVLSQISPDRVPLEALRGLYRKDPLLGLAFLVAMLSLLGLPPLAGFWGKYLAFAEAARAGAWGVLVLALVTSAVSAYYYLGLGLAVFARPEETPFRPGPPWARAAVVAAGVLLLALGLLPGLVLPALAAGG
B2: Nqo7 (natural protein, Thermus thermophilus, UniProt Q56217 1-119, looked up)
chain: MAPIQEYVGTLIYVGVALFIGVAALLVGALLGPKKPGRAKLMPYESGNDPAGEVKRFPVHFYVVAMLFILFDVEVAFLWPYAVSAGGLGLYGFLGVLAFTLLLFVGFLYEWWKGVMRWH
B3: Nqo11 (natural protein, Thermus thermophilus, UniProt Q56226 1-95, looked up)
chain: MSYLLTSALLFALGVYGVLTRRTAILVFLSIELMLNAANLSLVGFARAYGLDGQVAALMVIAVAAAEVAVGLGLIVAIFRHRESTAVDDLSELRG
B4: Nqo13 (natural protein, Thermus thermophilus, UniProt Q56228 1-469, looked up)
chain: MVVLAVLLPVVFGALLLLGLPRALGVLGAGLSFLLNLYLFLTHPGGVAHAFQAPLLPGAGVYWAFGLDGLSALFFLTIALTVFLGALVARVEGRFLGLALLMEGLLLGLFAARDLLVFYVFFEAALIPALLMLYLYGGEGRTRALYTFVLFTLVGSLPMLAAVLGARLLSGSPTFLLEDLLAHPLQEEAAFWVFLGFALAFAIKTPLFPLHAWLPPFHQENHPSGLADALGTLYKVGVFAFFRFAIPLAPEGFAQAQGLLLFLAALSALYGAWVAFAAKDFKTLLAYAGLSHMGVAALGVFSGTPEGAMGGLYLLAASGVYTGGLFLLAGRLYERTGTLEIGRYRGLAQSAPGLAALALILFLAMVGLPGLSGFPGEFLTLLGAYKASPWLAALAFLSVIASAAYALTAFQKTFWEEGGSGVKDLAGAEWGFALLSVLALLLMGVFPGYFARGLHPLAEAFAKLLGGGA

Holding throughout (assay): crystal structure
In assay [1] the target is T1, Nqo12.
Assay [2] deals with T2, Nqo8.
In assay [3] the target is T3, Nqo10.
In assay [4] the target is B1.

Consider B1, for which the binding result in assay [1] was “binds”. In the case of B2, the binding result in assay [2] is on record as “binds”. Regarding B3, the binding result in assay [3] and in assay [4] was “binds” each time. For the molecule B4, the binding result in assay [1] was “binds”.
